Details: Chloroflexus aurantiacus (strain ATCC 29366 / DSM 635 / J-10-fl), Thermal, CD, whole UniProt chain shown

B1: Malate dehydrogenase wild type, P80040 (protein)
chain: MRKKISIIGAGFVGSTTAHWLAAKELGDIVLLDFVEGVPQGKALDLYEASPIEGFDVRVTGTNNYADTANSDVIVVTSGAPRKPGMSREDLIKVNADITRACISQAAPLSPNAVIIMVNNPLDAMTYLAAEVSGFPKERVIGQAGVLDAARYRTFIAMEAGVSVEDVQAMLMGGHGDEMVPLPRFSTISGIPVSEFIAPDRLAQIVERTRKGGGEIVNLLKTGSAYYAPAAATAQMVEAVLKDKKRVMPVAAYLTGQYGLNDIYFGVPVILGAGGVEKILELPLNEEEMALLNASAKAVRATLDTLKSL
Question: Which Tm (pH 4.4, sodium acetate 10 mM) does the source give for B1 here?
Answer: 80.4 °C

Question: What about the Tm (pH 6, potassium phosphate 10 mM) of the same protein?
Answer: 79.4 °C

Question: What about the Tm (pH 7.5, potassium phosphate 10 mM) of the same protein?
Answer: 67.8 °C
